Measured values from patent US20120124684A1.

Target: purified glutathione reductase (GR)
Experiment: cell-based or functional assay

GR activity in vitro (purified GR with purified αBC, compared to a BSA control; proteins added at a 1:4 molar ratio to GR): 18%
Substance: purified αBC
